Laboratory results as given in patent US20200282012A1 (published 2020).

Columns and labels:
[1] = biological target: T1, human complement component C3 (human, UniProt P01024 23-1663); test: cell-based or functional assay
[2] = biological target: T1, human complement component C3; test: cell-based or functional assay; remark: listed apart in the source

Binder | % Parent, Q1 (Type III cells with C3d deposition), modified Ham's assay, CA28-2GS-BF 50 ug/ml [1] [%] | % Parent, Q2 (Type I and II cells with C3d deposition), modified Ham's assay, CA28-2GS-BF 50 ug/ml [1] [%] | % Parent, Q3 (Type III cells without significant C3d deposition), modified Ham's assay, CA28-2GS-BF 50 ug/ml [1] [%] | % Parent, Q4 (Type I and II cells without significant C3d deposition), modified Ham's assay, CA28-2GS-BF 50 ug/ml [1] [%] | IC50 as a function of CA28 concentration, classical complement inhibition assay (C3b deposition ELISA, human plasma) [2] [nM]
ICVWQDWGAHRCTK (N-terminal acetyl; 1-methyl-tryptophan at position 4; disulfide Cys2-Cys12; AEEAc spacer between Thr13 and Lys; Lys side chain coupled to one end of a bifunctional linear 40 kD PEG of the GS type (glutaryl; amide and ester linkage); C-terminal amide) [CA28-2GS-BF] | 0.01 | 0.01 | 61.5 | 38.5 | –
ICVWQDWGAHRCTK (N-terminal acetyl; 1-methyl-tryptophan at position 4; disulfide Cys2-Cys12; AEEAc spacer between Thr13 and Lys; Lys side chain coupled to one arm of an eight-arm 40 kD PEG (SUNBRIGHT HGEO-400GS); C-terminal amide) [(CA28-AEEAc)8-PEG40k] | – | – | – | – | 1930
